Measurements: publication PMC3734851
Several values for one entry are separate records, joined by “and”; a condition that tells them apart may be missing. Equal values may be shown once. Read-outs that look alike come from different tables or passages of the source.

What was measured:
[1] = target: TOG1-TOG2 of Stu2p (yeast); assay: AUC
[2] = target: TOG1-TOG2 of Stu2p (yeast); assay: AUC; remark: listed apart in the source
[3] = target: αβ-tubulin (unpolymerized, as used in gel filtration and analytical ultracentrifugation) (yeast) (UniProt P09733)
[4] = target: αβ-tubulin (unpolymerized, as used in gel filtration and analytical ultracentrifugation) (yeast) (UniProt P09733); assay: AUC

Substance | stoichiometry N [1] | stoichiometry N [2] | Kd [3] [nM] | stoichiometry N [4]
αβ-tubulin (unpolymerized, as used in gel filtration and analytical ultracentrifugation) (from UniProt P09733 1-447; P02557 1-457) (complex) | 1 | 1 and 2 | – | –
TOG2 domain of Stu2p (domain or fragment) | – | – | 200 to 300 | 1
